± gives the standard deviation.
Assay: protein stability index of a GFP-peptide fusion (GPS, HEK-293T) (PSI 1-6); higher = more stable
[1] = treatment: DMSO, c terminus: a fixed tail appended
[2] = treatment: MLN4924 1 uM, 8 h, c terminus: a fixed tail appended
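Also: 24-mer peptide tiles fused after GFP, lentivirally expressed, FACS-sorted into six equal bins by GFP/DsRed ratio, decoded by Illumina sequencing, PSI is the read-weighted mean bin number.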

Row | Sequence | protein stability index [1] | protein stability index [2] | protein stability index (treatment: DMSO, c terminus: native) | protein stability index (treatment: MLN4924 1 uM, 8 h, c terminus: native)
1 | LDAHYHVKISDFGLAKCNGLSHSH [RIPK4] | 2.25 ± 0.31 | 2.48 ± 0.15 | – | –
2 | VEESEASSSVSISHSASATGNVCI [LMNB1] | 4.84 ± 0.11 | 4.71 ± 0.12 | – | –
3 | QETAKEEDGSVELESQVQKDGVAD [C18orf25] | 5.55 ± 0.24 | 5.61 ± 0.34 | – | –
4 | ELRRDSSESQLASTESDKPTTGRV [C18orf25] | 5.28 ± 0.38 | 5.39 ± 0.21 | – | –
5 | VDGRHLLRTLSRAKFWPRRRFNFF [DNAAF3] | 1.92 ± 0.23 | 2.17 ± 0.11 | – | –
6 | ARKLTAQRRASTVSSVTQVEVDEN [NET1] | 5.15 ± 0.39 | 5.14 ± 0.33 | – | –
7 | DSTGYMEVSLDSLDLRVKGILSSQ [EHMT1] | 3.08 ± 0.36 | 3.17 ± 0.29 | – | –
8 | WEAKQEKIKSEEIEITFSYWDGSG [FAM50A] | 2.59 ± 0.3 | 2.6 ± 0.35 | – | –
9 | NHGFEVLYHSVKQGPISTKELADF [FCHO1] | 3.4 ± 0.15 | 3.29 ± 0.17 | – | –
10 | CYNGQDAVVNELIDYGANVNQPNN [ANKRD44] | 4.16 ± 0.088 | 4.24 ± 0.21 | – | –
11 | GALTGKENNMLQPETHIFTAPEEV [DMRTC1] | 5.19 ± 0.17 | 5.01 ± 0.16 | – | –
12 | DPTGASIALFTARLHHPHKSVQHV [PTPN9] | 2.37 ± 0.29 | 2.64 ± 0.23 | – | –
13 | QRSHMGKLKEPQPQDHKPGLGAS | – | – | 3.13 ± 0.88 | 3.63 ± 0.56
14 | KQLRQVTKEEGLALAREFSCPFFE [RIT1] | 3.27 ± 0.29 | 3.49 ± 0.33 | – | –
15 | PIDGTTNFVHRFPFVAVSIGFAVN [IMPA1] | 2.96 ± 0.76 | 2.39 ± 0.55 | – | –
16 | SSAGSAEQTAPGDSTGYMEVSLDS [EHMT1] | 5.29 ± 0.35 | 5.33 ± 0.12 | – | –
17 | ALKEDFGFKHRLWVYSGRRGVHCW [PRIM1] | 2.28 ± 0.65 | 2.48 ± 0.61 | – | –
18 | VTGYGINGTGDSNDFWRIEVVNRK [POMT2] | 3.29 ± 0.21 | 3.39 ± 0.17 | – | –
19 | GDKASPDQNASTHTPQSSVKTSVP [CLINT1] | 5.54 ± 0.19 | 5.38 ± 0.28 | – | –
20 | VGRTVLDMLIREVVEKRLCMYEHG [RSPH3] | 2.89 ± 0.52 | 3.39 ± 0.14 | – | –
21 | AGKQRMKEKEQENERKVAQLAEEN [DDIT3] | 5.29 ± 0.41 | 5.49 ± 0.43 | – | –
22 | AFLRRVKTCNPPDAGPMVVHCSAG [PTPRD] | 2.15 ± 0.068 | 2.18 ± 0.3 | – | –

Row | Sequence | protein stability index [1] | protein stability index [2] | protein stability index (treatment: DMSO, c terminus: native) | protein stability index (treatment: MLN4924 1 uM, 8 h, c terminus: native)
23 | PDTQALCHHLPVIRQLATSGRFIV [SMG5] | 2.07 ± 0.45 | 2.23 ± 0.44 | – | –
24 | DTDAEGDDFELLDQSELSQLDPAS [RETREG3] | 5.61 ± 0.065 | 5.57 ± 0.16 | – | –
25 | MGQKVTGGIKTVDMRDPTYRPLKQ [SPSB1] | 3.89 ± 0.22 | 4.01 ± 0.28 | – | –
26 | RMPDEDSKIDHYVLEYRRTNFEGP [FSD1] | 3.78 ± 0.19 | 3.79 ± 0.14 | – | –
27 | IAYYSYIYSVVDLGMYQKVTSYCR [SLC19A2] | 3.28 ± 0.38 | 2.62 ± 0.071 | – | –
28 | SLGERMNTFVRYLLKRIKKCCGMR [KCNK9] | 3.38 ± 0.14 | 2.83 ± 0.32 | – | –
29 | ESKIREHLEKKGPQVRDWSHYFKI [KRT18] | 2.82 ± 0.26 | 2.67 ± 0.28 | – | –
30 | ILNLERDVEDLQRDKARLLREKVE [NFE2L1] | 3.96 ± 0.51 | 3.93 ± 0.41 | – | –
31 | EIVGNLGEGTFGKVVECLDHARGK [CLK3] | 3.81 ± 0.1 | 3.97 ± 0.29 | – | –
32 | RSSFANQGEICLCTSRIFVQKSIY [ALDH8A1] | 2.03 ± 0.41 | 2.13 ± 0.24 | – | –
33 | MEPSPLSPSGAALPLPLSLAPPPL [ZBTB22] | 4.07 ± 0.35 | 4.11 ± 0.18 | – | –
34 | LQTGPLLGRPDSLELQRQREARKR [RSPH3] | 4.83 ± 0.2 | 5.08 ± 0.31 | – | –
35 | LSAGSPPVPPGWNPNSSSGKGSGG [DLX1] | 4.86 ± 0.24 | 4.72 ± 0.1 | – | –
36 | VDKYVNSFVLKNFPALLSTGEFLK [KLHL13] | 2.01 ± 0.45 | 2.1 ± 0.6 | – | –
37 | GSSSVALPKEASDGTGASQEPPTT [TOR1AIP2] | 5.4 ± 0.43 | 5.6 ± 0.34 | – | –
38 | RGIAIVSVLVILISIVIFCLETLP [KCNA4] | 2.29 ± 0.17 | 2.26 ± 0.33 | – | –
39 | FLVFILNAGLVWFFPWREAKPGST [MFSD9] | 3.21 ± 0.74 | 3.11 ± 0.19 | – | –
40 | PAATEAYGSGDTPGGPCDSTLGGD [TBX6] | 5.46 ± 0.25 | 5.3 ± 0.55 | – | –
41 | KTERINALELLGATFVDKKRDLLG [FEM1C] | 3.23 ± 0.1 | 3.4 ± 0.22 | – | –
42 | YRAALRSCSLVLEHQPDNIKALFR [FKBP8] | 2.17 ± 0.25 | 2.27 ± 0.037 | – | –
43 | VRVLESLLVSLVTTVVVFVASMVL [CLCN6] | 3.13 ± 0.4 | 3.3 ± 0.34 | – | –
44 | RLWGIRKNRPAMNYDKLSRSIRQY [SPDEF] | 2.4 ± 0.25 | 2.4 ± 0.45 | – | –

Row | Sequence | protein stability index [1] | protein stability index [2] | protein stability index (treatment: DMSO, c terminus: native) | protein stability index (treatment: MLN4924 1 uM, 8 h, c terminus: native)
45 | RSLILDDRGLRGFPKNRVLEGVID [TRIM9] | 3.16 ± 0.2 | 3.47 ± 0.41 | – | –
46 | LLIFGKELSAIGSDTTPLPSWAAL [SNX8] | 2.42 ± 0.37 | 2.13 ± 0.28 | – | –
47 | HIFAHRIYLATSSSKFYDLFLMEC [RHOBTB1] | 3.07 ± 0.6 | 2.38 ± 0.49 | – | –
48 | GFIKKFVLCPECENPETDLHVNPK [EIF5] | 3.09 ± 0.38 | 3.29 ± 0.05 | – | –
49 | VGSDPLIKSDEECRDLVDEAKNYL [KLHL20] | 5.2 ± 0.11 | 5.09 ± 0.28 | – | –
50 | SCTIIFLASIFQLAMWTTALLHQA [TMEM175] | 2.5 ± 0.2 | 3.17 ± 0.54 | – | –
51 | KILGYLNTNVLSRDLIPPHVNFSH [SLC6A17] | 2.2 ± 0.33 | 2.375 ± 0.022 | – | –
52 | FTDTSIILFLNKKDLFEEKIKKSP [GNAI1] | 2.2 ± 0.97 | 2.35 ± 1.1 | – | –
53 | TFAGDTCQVALNFANEEEAKKFRK [WASL] | 4.75 ± 0.12 | 4.73 ± 0.32 | – | –
54 | AELKEAVEEPSSKDVMEKREDSKE [CHGA] | 5.67 ± 0.083 | 5.61 ± 0.17 | – | –
55 | TLLVCGKKAYDYFQAKKIPIVSSL [PDZK1] | 2.6 ± 0.75 | 2.58 ± 0.13 | – | –
56 | REITGVQAQPGEATSGPPGIQPGQ [PALM] | 5.37 ± 0.26 | 5.23 ± 0.2 | – | –
57 | NECEITKRRRKSCQACRFMKCLKV [ESRRG] | 2.57 ± 0.056 | 2.95 ± 0.38 | – | –
58 | NFSAAKSLLKKPDGVKESTESSNT [CAMK2D] | 5.35 ± 0.22 | 5.28 ± 0.35 | – | –
59 | QAQIDQYLGLVRTHINAVVAKIQA [RTN1] | 2.08 ± 0.35 | 2.35 ± 0.28 | – | –
60 | RQKTSGPSVIQEIHQESGKAPSTD [C10orf62] | 5.41 ± 0.073 | 5.4 ± 0.057 | – | –
61 | AEDHLDGCCKRRYLQKIEEFAEMV [KCNG1] | 3.06 ± 0.14 | 2.96 ± 0.1 | – | –
62 | QRDSKCKVKWTHEEDEQLRALVRQ [MYBL2] | 4.25 ± 0.33 | 4.02 ± 0.24 | – | –
63 | ASQCCGVHVISLHIWELSSIKNSL [PTGFR] | – | 2.31 ± 0.52 | – | –
64 | ETPNPPQSAQIACSSPSVVASLPL [MAGEA10] | 4.62 ± 0.25 | 4.59 ± 0.38 | – | –
65 | DVKAMGPLVLTEVLFNEKIREQIK [EIF5] | 2.39 ± 0.11 | 2.28 ± 0.34 | – | –

Reference: the supplement of paper PMC10567573
